According to the supplement of paper PMC9876800:

Test system: peptide library, one residue held at a place counted from the S/T acceptor
Assay: relative phosphorylation of the sub-library (ratio to the mean residue at this position); human; higher = residue favoured
In short: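 Relative sub-library phosphorylation is a ratio to the mean residue at the same position. Purified recombinant kinases were incubated under kinase-specific conditions with biotinylated degenerate peptide sub-libraries, each fixing one residue at one position around a central Ser/Thr, using 50 μM peptide and 50 μM ATP spiked with γ-32P-ATP for 90 min. Spots captured on streptavidin membranes were phosphorimaged and quantified by densitometry.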

Chain of TNIK, construct: aa1-314 (Q9UKE5 1-314, looked up): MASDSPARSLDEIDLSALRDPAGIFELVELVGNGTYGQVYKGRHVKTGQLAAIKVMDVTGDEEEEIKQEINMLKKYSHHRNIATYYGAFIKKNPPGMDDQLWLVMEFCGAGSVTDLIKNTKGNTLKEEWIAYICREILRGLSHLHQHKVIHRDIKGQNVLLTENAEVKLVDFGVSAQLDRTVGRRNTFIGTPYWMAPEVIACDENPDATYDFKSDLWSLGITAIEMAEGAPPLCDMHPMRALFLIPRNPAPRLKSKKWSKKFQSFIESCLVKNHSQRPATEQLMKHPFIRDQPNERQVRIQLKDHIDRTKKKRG
Chain of TP53RK, construct: Full length (Q96S44 whole entry, looked up): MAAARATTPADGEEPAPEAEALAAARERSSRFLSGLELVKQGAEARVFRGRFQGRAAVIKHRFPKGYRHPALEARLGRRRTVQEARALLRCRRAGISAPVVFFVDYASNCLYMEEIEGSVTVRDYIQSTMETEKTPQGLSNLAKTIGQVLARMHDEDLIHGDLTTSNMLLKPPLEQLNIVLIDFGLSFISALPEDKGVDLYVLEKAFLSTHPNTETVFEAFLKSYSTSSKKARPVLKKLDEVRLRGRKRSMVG

STK39, construct: Full length (from UniProt Q9UEW8)
relative phosphorylation
Settings | at +1 | at +2 | at +3 | at +4 | at -1 | at -2 | at -3 | at -4 | at -5
A fixed | 0.382 | 0.623 | 0.889 | 0.918 | 0.783 | 0.729 | 0.996 | 1 | 1.13
D fixed | 0.233 | 0.398 | 0.795 | 0.812 | 1.29 | 1.04 | 1.1 | 1.47 | 1.27
E fixed | 0.266 | 0.234 | 0.96 | 0.651 | 1.05 | 0.826 | 0.895 | 1.36 | 1.07
F fixed | 1.17 | 0.908 | 0.901 | 0.899 | 0.908 | 1.05 | 0.783 | 0.88 | 0.983
G fixed | 0.24 | 0.824 | 1.06 | 1.27 | 0.606 | 0.888 | 0.933 | 1.2 | 1.07
H fixed | 1.01 | 4.16 | 1.32 | 0.999 | 1.62 | 1.44 | 1.47 | 1.07 | 0.932
I fixed | 2.61 | 0.696 | 0.654 | 0.739 | 0.638 | 0.409 | 0.615 | 0.672 | 0.679
K fixed | 0.432 | 0.55 | 0.862 | 1.15 | 0.818 | 0.414 | 0.61 | 0.771 | 0.927
L fixed | 1.56 | 0.65 | 1.01 | 0.921 | 1.32 | 0.721 | 0.646 | 0.76 | 0.619
M fixed | 1.33 | 0.873 | 1.05 | 0.952 | 1.18 | 0.744 | 0.763 | 0.832 | 0.866
N fixed | 0.453 | 1.08 | 1.27 | 1.18 | 1.34 | 1.29 | 1.59 | 1.02 | 0.95
P fixed | 0.175 | 0.523 | 0.906 | 1.14 | 0.49 | 0.539 | 0.937 | 1.05 | 1.24
Q fixed | 0.661 | 1.03 | 1.19 | 1.19 | 0.963 | 1.91 | 1.09 | 0.959 | 0.892
R fixed | 0.517 | 0.824 | 1.06 | 1.18 | 1.04 | 0.529 | 0.677 | 0.831 | 0.96
V fixed | 1.84 | 1.04 | 0.72 | 0.694 | 0.584 | 0.457 | 0.623 | 0.769 | 0.911
W fixed | 2.89 | 0.987 | 1.16 | 1.37 | 1.06 | 1.17 | 1.03 | 1.18 | 1.17
Y fixed | 1.23 | 1.61 | 1.19 | 0.933 | 1.3 | 2.84 | 2.24 | 1.17 | 1.34
pThr fixed | 0.677 | 0.474 | 0.767 | 0.493 | 0.867 | 0.793 | 1.11 | 1.19 | 1.25
pTyr fixed | 0.614 | 0.352 | 1 | 0.586 | 1.77 | 1.16 | 1.02 | 1.25 | 1.45

TNIK, construct: aa1-314 (from UniProt Q9UKE5)
relative phosphorylation
Settings | at +1 | at +2 | at +3 | at +4 | at -1 | at -2 | at -3 | at -4 | at -5
A fixed | 0.761 | 1.16 | 0.938 | 1.13 | 1.07 | 1.21 | 1.01 | 1.08 | 1.36
D fixed | 0.223 | 0.678 | 0.496 | 0.73 | 0.855 | 0.883 | 0.799 | 0.968 | 0.923
E fixed | 0.249 | 0.591 | 0.389 | 0.656 | 0.682 | 0.577 | 0.76 | 1.1 | 0.885
F fixed | 0.89 | 0.449 | 0.465 | 0.632 | 0.699 | 1.24 | 0.895 | 0.959 | 0.909
G fixed | 0.746 | 1.01 | 0.904 | 1.17 | 1.73 | 1.3 | 1.2 | 1.18 | 1.31
H fixed | 0.916 | 1.28 | 0.94 | 1.06 | 1.52 | 1.19 | 1.47 | 1.13 | 1.02
I fixed | 1.49 | 0.459 | 0.381 | 0.593 | 0.326 | 0.689 | 0.701 | 0.73 | 0.724
K fixed | 1.08 | 2.49 | 3.02 | 2.18 | 1.36 | 0.919 | 1.44 | 1.17 | 1.2
L fixed | 2.4 | 0.685 | 0.777 | 0.636 | 0.803 | 0.595 | 0.67 | 0.751 | 0.619
M fixed | 1.98 | 0.806 | 0.52 | 0.715 | 1.06 | 0.79 | 0.814 | 0.866 | 0.793
N fixed | 0.843 | 0.992 | 0.871 | 1.02 | 1.33 | 1.19 | 1.15 | 0.792 | 1.02
P fixed | 0.338 | 1.05 | 1.14 | 1.23 | 0.65 | 0.736 | 1.08 | 1.18 | 1.41
Q fixed | 0.782 | 1.04 | 0.886 | 1.04 | 0.859 | 0.987 | 0.896 | 0.964 | 0.912
R fixed | 0.995 | 2.4 | 3.23 | 2.2 | 1.7 | 1.19 | 1.33 | 1.17 | 1.22
V fixed | 0.898 | 0.531 | 0.503 | 0.65 | 0.438 | 0.785 | 0.594 | 0.816 | 0.891
W fixed | 1.32 | 0.593 | 0.789 | 0.738 | 0.685 | 1.17 | 1.04 | 0.954 | 0.771
Y fixed | 1.08 | 0.783 | 0.745 | 0.619 | 1.23 | 1.55 | 1.16 | 1.19 | 1.02
pThr fixed | 0.541 | 0.566 | 0.532 | 0.519 | 0.449 | 0.797 | 0.884 | 0.945 | 1
pTyr fixed | 0.42 | 0.505 | 0.638 | 0.581 | 1.02 | 0.969 | 1.22 | 1.15 | 1.03

TP53RK, construct: Full length (from UniProt Q96S44)
relative phosphorylation
Settings | at +1 | at +2 | at +3 | at +4 | at -1 | at -2 | at -3 | at -4 | at -5
A fixed | 0.941 | 0.938 | 1.06 | 0.947 | 1.23 | 1.24 | 1.01 | 1.17 | 1.05
D fixed | 1.03 | 1.01 | 0.952 | 1.05 | 0.972 | 0.929 | 1.02 | 0.897 | 0.956
E fixed | 1.09 | 1.08 | 0.988 | 1.16 | 1 | 1.04 | 1.1 | 0.973 | 0.922
F fixed | 1.12 | 1.09 | 1.04 | 0.983 | 0.998 | 0.94 | 1.03 | 0.971 | 0.953
G fixed | 0.918 | 0.956 | 1.08 | 0.958 | 1.3 | 1.49 | 1.08 | 1.12 | 0.976
H fixed | 1.07 | 1.33 | 1.07 | 1.11 | 0.847 | 0.877 | 0.987 | 1.11 | 1.17
I fixed | 0.913 | 0.816 | 0.945 | 0.896 | 0.976 | 1.01 | 0.878 | 0.829 | 0.893
K fixed | 1.05 | 1.01 | 0.99 | 1.09 | 0.864 | 0.848 | 0.985 | 1.07 | 1.12
L fixed | 1.01 | 0.85 | 0.926 | 0.862 | 1.03 | 0.981 | 0.815 | 0.792 | 0.86
M fixed | 0.979 | 0.926 | 0.959 | 0.879 | 1.04 | 1.02 | 1.03 | 0.949 | 0.946
N fixed | 1.01 | 0.998 | 0.947 | 0.955 | 0.933 | 0.927 | 1.02 | 0.966 | 0.961
P fixed | 0.85 | 0.925 | 1.02 | 0.967 | 1.24 | 1.2 | 0.955 | 1.16 | 0.989
Q fixed | 1.04 | 0.975 | 0.953 | 1.08 | 0.897 | 0.906 | 1.06 | 1.04 | 0.903
R fixed | 0.973 | 0.971 | 0.964 | 1.01 | 0.857 | 0.853 | 1 | 1.03 | 1.12
V fixed | 0.917 | 0.885 | 0.949 | 0.838 | 0.964 | 0.989 | 0.894 | 0.931 | 0.962
W fixed | 1.05 | 1.13 | 1.04 | 1.15 | 0.907 | 0.867 | 1.14 | 1.07 | 1.16
Y fixed | 1.05 | 1.11 | 1.12 | 1.07 | 0.939 | 0.892 | 0.996 | 0.922 | 1.05
pThr fixed | 0.977 | 0.952 | 0.886 | 1.03 | 1.06 | 1.08 | 0.987 | 0.973 | 0.943
pTyr fixed | 1.05 | 1.11 | 1.02 | 1.01 | 3.48 | 1.31 | 1.08 | 0.942 | 0.944
